Experimental data published in paper PMC11808424.

What follows are substances tested against soluble His‐tagged human LRP4 (low‐density lipoprotein receptor‐related protein 4) (human) (UniProt O75096) (assay: SPR).
Chain of UniProt O75096 (O75096 21-1725): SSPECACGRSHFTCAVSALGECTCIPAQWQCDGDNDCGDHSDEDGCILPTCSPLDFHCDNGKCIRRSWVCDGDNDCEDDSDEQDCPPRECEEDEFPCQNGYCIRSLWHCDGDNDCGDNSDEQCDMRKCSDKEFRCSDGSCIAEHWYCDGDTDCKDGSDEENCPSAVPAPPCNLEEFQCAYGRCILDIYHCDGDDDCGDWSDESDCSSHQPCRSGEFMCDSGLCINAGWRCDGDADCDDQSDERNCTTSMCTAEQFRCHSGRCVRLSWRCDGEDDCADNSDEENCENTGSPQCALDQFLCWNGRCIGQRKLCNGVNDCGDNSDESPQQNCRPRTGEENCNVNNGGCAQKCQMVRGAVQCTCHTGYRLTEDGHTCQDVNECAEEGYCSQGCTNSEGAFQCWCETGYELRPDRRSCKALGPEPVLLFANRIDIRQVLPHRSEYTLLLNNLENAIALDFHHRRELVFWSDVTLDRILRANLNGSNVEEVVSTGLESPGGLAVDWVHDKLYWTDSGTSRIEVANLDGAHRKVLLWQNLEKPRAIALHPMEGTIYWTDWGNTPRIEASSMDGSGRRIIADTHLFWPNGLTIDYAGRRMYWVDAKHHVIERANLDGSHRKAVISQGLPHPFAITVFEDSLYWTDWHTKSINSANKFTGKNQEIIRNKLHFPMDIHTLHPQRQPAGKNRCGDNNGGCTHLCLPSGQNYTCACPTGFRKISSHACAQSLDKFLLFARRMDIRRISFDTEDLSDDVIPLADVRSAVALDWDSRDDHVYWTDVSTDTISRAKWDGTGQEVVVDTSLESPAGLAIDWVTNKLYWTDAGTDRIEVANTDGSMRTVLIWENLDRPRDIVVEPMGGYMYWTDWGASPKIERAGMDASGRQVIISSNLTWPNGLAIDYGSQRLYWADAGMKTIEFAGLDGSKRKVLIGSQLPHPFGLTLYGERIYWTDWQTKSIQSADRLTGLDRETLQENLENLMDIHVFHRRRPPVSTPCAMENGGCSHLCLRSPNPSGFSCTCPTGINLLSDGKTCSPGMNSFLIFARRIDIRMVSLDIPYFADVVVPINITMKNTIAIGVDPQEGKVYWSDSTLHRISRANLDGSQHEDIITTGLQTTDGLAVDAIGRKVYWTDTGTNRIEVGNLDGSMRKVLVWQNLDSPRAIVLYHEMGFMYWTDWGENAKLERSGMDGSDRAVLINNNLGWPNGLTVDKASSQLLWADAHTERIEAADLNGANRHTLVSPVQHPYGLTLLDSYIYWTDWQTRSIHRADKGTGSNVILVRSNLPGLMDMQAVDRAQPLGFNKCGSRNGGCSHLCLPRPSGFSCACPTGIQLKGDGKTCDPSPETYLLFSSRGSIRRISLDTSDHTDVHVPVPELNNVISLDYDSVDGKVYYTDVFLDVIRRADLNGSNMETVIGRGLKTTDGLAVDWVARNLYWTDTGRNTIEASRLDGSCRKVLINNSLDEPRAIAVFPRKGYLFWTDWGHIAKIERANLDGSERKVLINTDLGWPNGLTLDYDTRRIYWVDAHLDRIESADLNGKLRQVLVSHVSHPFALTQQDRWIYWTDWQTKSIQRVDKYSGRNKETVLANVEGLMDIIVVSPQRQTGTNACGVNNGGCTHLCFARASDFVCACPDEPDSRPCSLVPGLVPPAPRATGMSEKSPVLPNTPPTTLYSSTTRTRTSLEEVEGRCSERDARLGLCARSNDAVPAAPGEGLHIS

| Kd [µM] | Substance |
| --- | --- |
| 20.2 | purified soluble Scl_(K75Q) (natural protein) |
| 7.52 | purified soluble Scl_(V136D) (natural protein) |
| 35.9 | purified soluble Scl_(K75E) (natural protein) |
